Blank lines part the entries; values can stand above or below the binder they belong to. Bridges are numbered along the chain shown (N, C = ends). Where no end group is shown, it is not given here.
B1: recombinant human BMP-2 (ligand)
chain: QAKHKQRKRLKSSCKRHPLYVDFSDVGWNDWIVAPPGYHAFYCHGECPFPLADHLNSTNHAIVQTLVNSVNSKIPKACCVPTELSAISMLYLDENEKVVLKNYQDMVVEGCGCR
B2: bovine fetuin (other)
chain: IPLDPVAGYKEPACDDPDTEQAALAAVDYINKHLPRGYKHTLNQIDSVKVWPRRPTGEVYDIEIDTLETTCHVLDPTPLANCSVRQQTQHAVEGDCDIHVLKQDGQFSVLFTKCDSSPDSAEDVRKLCPDCPLLAPLNDSRVVHAVEVALATFNAESNGSYLQLVEISRAQFVPLPVSVSVEFAVAATDCIAKEVVDPTKCNLLAEKQYGFCKGSVIQKALGGEDVRVTCTLFQTQPVIPQPQPDGAEAEAPSAVPDAAGPTPSAAGPPVASVVVGPSVVAVPLPLHRAHYDLRHTFSGVASVESSSGEAFHVGKTPIVGQPSIPGGPVRLCPGRIRYFKI

How the values were obtained:
bovine serum albumin = bovine serum albumin (bovine, UniProt P02769); assay: SPR (BIAcore), BMP-2 immobilized
Procedure: (§1) In this system, a purified protein serving as the ligand is covalently coupled to a carboxymethylated dextran surface, and binding molecules (i.e. the analyte) are passed in a fluid phase across the surface. Binding of the analyte to ligand causes a change in reflected light which is directly proportional to mass bound, and is measured in arbitrary response units (R.U.). Analyte-ligand binding is observed as both increasing response with time during the injection of analyte, and the difference in the position of the baseline before and after injection.

bovine fetuin [1] = target: B2; assay: SPR (BIAcore); analyte over immobilized cytokine
Procedure: as §1
(§2) Data was analyzed using the BIA-evaluation software (Pharmacia Biosensor). The association rate constant, $kass$, was calculated by first plotting the change in response with time versus response (i.e. dR/dT vs R). When the slope of the line from this graph is plotted versus analyte concentration (i.e d(dR/dT)/dR vs C), $kass$ is obtained from the slope of the line. The dissociation rate constant, $kdiss$, is obtained during the decrease in response with time after analyte injection is discontinued. Specifically, $kdiss$ was obtained from the slope of the line in a plot of $\ln(Rt1/Rtn)$ vs time. The affinity constants were calculated from K_D = kdiss/kass. Variance for $kass$ is standard error of the linear regression plot, and for $kdiss$ values are the mean ± range of 3 or more independent injections.
(§3) Data was analyzed using the BIA-evaluation software (Pharmacia Biosensor). The association rate constant, $kass$, was calculated by first plotting the change in response with time versus response (ie. dR/dT vs R).

[2] = target: T1, adult human fetuin/α2-HS glycoprotein (human, UniProt P02765); assay: SPR (BIAcore); analyte over immobilized cytokine
T1 sequence: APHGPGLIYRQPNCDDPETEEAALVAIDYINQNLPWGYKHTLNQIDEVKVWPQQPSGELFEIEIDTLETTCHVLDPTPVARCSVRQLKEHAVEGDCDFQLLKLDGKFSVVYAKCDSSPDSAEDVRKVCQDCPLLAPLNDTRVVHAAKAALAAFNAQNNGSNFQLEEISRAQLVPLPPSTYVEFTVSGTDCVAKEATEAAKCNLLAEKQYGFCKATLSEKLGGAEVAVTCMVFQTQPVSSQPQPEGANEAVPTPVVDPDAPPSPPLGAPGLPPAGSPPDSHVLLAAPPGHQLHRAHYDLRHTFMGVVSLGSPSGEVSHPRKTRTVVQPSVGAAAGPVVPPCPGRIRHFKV
Procedure: as §1
(§4) Binding constants for fetuins and TRH1 peptide interactions with TGF-β and BMPs measured using the BIAcore and BIA-evaluation software (Pharmacia Biosensor). The change in response with time was plotted for each analyte concentration (ie. dR/dT vs R), and the slope of these lines were then plotted as a function of analyte concentration (i.e d(dR/dT)/dR vs C), where the slope yields $kass$. The dissociation rate constant, $kdiss$, is obtained after analyte injection is discontinued as the slope of $\ln(Rtl/Rtn)$ vs time. K_Ds are $kdiss/kass$. Variance for $kass$ is standard error of the linear regression plot, and for $kdiss$ values are the mean ± range of 3 or more independent injections.

bovine fetuin [3] = target: B2; assay: SPR (BIAcore); analyte over immobilized cytokine; repeated calculation
Procedure: as §2, §4

recombinant human BMP-2 [4] = target: B1; assay: SPR (BIAcore)
purified human TGF-β1 [5] = target: T2, purified human TGF-β1 (human, UniProt P01137); assay: SPR (BIAcore); analyte over immobilized cytokine
Procedure: as §1, §2, §3

purified human TGF-β1 [6] = target: T2, purified human TGF-β1; assay: SPR (BIAcore); analyte over immobilized cytokine; repeated calculation
Procedure: as §2, §4

recombinant human BMP-2 [7] = target: B1; assay: SPR (BIAcore); analyte over immobilized cytokine
Procedure: as §1, §2, §3

recombinant human BMP-2 [8] = target: B1; assay: SPR (BIAcore); analyte over immobilized cytokine; repeated calculation
Procedure: as §2, §4

Binder: B1
binding result (bovine serum albumin): no binding (tested: 0.22, 0.29, 0.44, 0.59, 0.88 µM)
Kd (bovine fetuin [1]): 0.036 µM
Kd [2]: 0.051 µM
Kd (bovine fetuin [3]): 0.027 µM

Binder: B2
fold greater affinity than fetuin binding to TGF-β1 (recombinant human BMP-2 [4]): ~100 times

Kd (purified human TGF-β1 [5]): > 10 µM
Kd (purified human TGF-β1 [6]): > 10 µM
B3: reduced and alkylated TRH1b peptide from TβRII (peptide)
peptide: CVAVWRKNDENITLETVCHD
modifications: also: Cys reduced and alkylated, agent not given here, exact limits not given here

Kd (purified human TGF-β1 [5]): 0.52 µM
koff (purified human TGF-β1 [5]): 0.0019 s⁻¹
kon (purified human TGF-β1 [5]): 3700 M⁻¹ s⁻¹
Kd (recombinant human BMP-2 [7]): > 10 µM
Kd (purified human TGF-β1 [6]): 1 µM
koff (purified human TGF-β1 [6]): 0.0023 s⁻¹
kon (purified human TGF-β1 [6]): 2200 M⁻¹ s⁻¹
Kd (recombinant human BMP-2 [8]): > 10 µM
B4: cyclized TRH1b peptide from TβRII (peptide)
peptide: CVAVWRKNDENITLETVC
modifications: disulfide 1-18 (inferred); also: exact limits not given here, terminal residues may be removed

Reference: patent US5981483, “Compositions comprising modulators of cytokines of the TGF-β superfamily” (Mount Sinai Hospital Corporation, dated 1999)
